US20250002610A1 (Genmab, published 2025)
Substitutions are numbered along the chain they refer to.

B1: BisG1-FAPα-FERL/DR4-FERR (bispecific antibody, human IgG1, kappa, lambda)
heavy 1: EVQLLESGGGLVQPGGSPRLSCEASGFTFSSYALSWVRQAPGKGLEWVSAISGSGGGRYYADSVKGRFTISRDNSKNTLFLQMNSLRAEDTAVYYCAKEGYSSSGTYWDHWGQGTLVTVSSASTKGPSVFPLAPSSKSTSGGTAALGCLVKDYFPEPVTVSWNSGALTSGVHTFPAVLQSSGLYSLSSVVTVPSSSLGTQTYICNVNHKPSNTKVDKRVEPKSCDKTHTCPPCPAPEFERGPSVFLFPPKPKDTLMISRTPEVTCVVVDVSHEDPEVKFNWYVDGVEVHNAKTKPREEQYNSTYRVVSVLTVLHQDWLNGKEYKCKVSNKALPAPIEKTISKAKGQPREPQVYTLPPSREEMTKNQVSLTCLVKGFYPSDIAVEWESNGQPENNYKTTPPVLDSDGSFLLYSKLTVDKSRWQQGNVFSCSVMHEALHNHYTQKSLSLSPG
light 1: AIQMTQSPSSVSASVGDRVTITCRASQGVSSWLAWYQQKPGRAPKLLIYVASTLQSGVPSRFSGSGSGTDFTLTINSLQPEDFATYYCQQANSFPPTFGQGTRLEMKRTVAAPSVFIFPPSDEQLKSGTASVVCLLNNFYPREAKVQWKVDNALQSGNSQESVTEQDSKDSTYSLSSTLTLSKADYEKHKVYACEVTHQGLSSPVTKSFNRGEC
heavy 2: QVQLQESGPGLVKPSGTLSLTCAVSGGSISSYSWWSWIRQPPGKGLEWIGELYHSGSTNYNPSLKSRVTISVDKSKNQFSLKLRSVTAADTAVYYCVRGVATIDYWGQGTLVTVSSASTKGPSVFPLAPSSKSTSGGTAALGCLVKDYFPEPVTVSWNSGALTSGVHTFPAVLQSSGLYSLSSVVTVPSSSLGTQTYICNVNHKPSNTKVDKRVEPKSCDKTHTCPPCPAPEFERGPSVFLFPPKPKDTLMISRTPEVTCVVVDVSHEDPEVKFNWYVDGVEVHNAKTKPREEQYNSTYRVVSVLTVLHQDWLNGKEYKCKVSNKALPAPIEKTISKAKGQPREPQVYTLPPSREEMTKNQVSLTCLVKGFYPSDIAVEWESNGQPENNYKTTPPVLDSDGSFFLYSRLTVDKSRWQQGNVFSCSVMHEALHNHYTQKSLSLSPG
light 2: QSALTQPPSASGSPGQSVTISCTGTSSDVGGYNFVSWYQQDPGKAPKLLIYEVTKRPSGVPDRFSGSKSGNTASLTVSGLQAEDEADYYCSSYAGSNNVMFGGGTKLTVLGQPKAAPSVTLFPPSSEELQANKATLVCLISDFYPGAVTVAWKADSSPVKAGVETTTPSKQSNNKYAASSYLSLTPEQWKSHRSYSCQVTHEGSTVEKTVAPTECS
notes: Human IgG1 bispecific made by controlled Fab-arm exchange of IgG1-FAPα-FERL and IgG1-DR4-FERR; monovalent for FAPα and for DR4; also called GEN1057
B2: BisG1-FAPα-FERL/b12-FERR (bispecific antibody, human IgG1, kappa)
heavy 1: B1 heavy 1
light 1: B1 light 1
heavy 2: QVQLVQSGAEVKKPGASVKVSCQASGYRFSNFVIHWVRQAPGQRFEWMGWINPYNGNKEFSAKFQDRVTFTADTSANTAYMELRSLRSADTAVYYCARVGPYSWDDSPQDNYYMDVWGKGTTVIVSSASTKGPSVFPLAPSSKSTSGGTAALGCLVKDYFPEPVTVSWNSGALTSGVHTFPAVLQSSGLYSLSSVVTVPSSSLGTQTYICNVNHKPSNTKVDKRVEPKSCDKTHTCPPCPAPEFERGPSVFLFPPKPKDTLMISRTPEVTCVVVDVSHEDPEVKFNWYVDGVEVHNAKTKPREEQYNSTYRVVSVLTVLHQDWLNGKEYKCKVSNKALPAPIEKTISKAKGQPREPQVYTLPPSREEMTKNQVSLTCLVKGFYPSDIAVEWESNGQPENNYKTTPPVLDSDGSFFLYSRLTVDKSRWQQGNVFSCSVMHEALHNHYTQKSLSLSPG
light 2: EIVLTQSPGTLSLSPGERATFSCRSSHSIRSRRVAWYQHKPGQAPRLVIHGVSNRASGISDRFSGSGSGTDFTLTITRVEPEDFALYYCQVYGASSYTFGQGTKLERKRTVAAPSVFIFPPSDEQLKSGTASVVCLLNNFYPREAKVQWKVDNALQSGNSQESVTEQDSKDSTYSLSSTLTLSKADYEKHKVYACEVTHQGLSSPVTKSFNRGEC
B3: IgG1-DR4-FERR (antibody, V domains shown)
VH: QVQLQESGPGLVKPSGTLSLTCAVSGGSISSYSWWSWIRQPPGKGLEWIGELYHSGSTNYNPSLKSRVTISVDKSKNQFSLKLRSVTAADTAVYYCVRGVATIDYWGQGTLVTVSS
VL: QSALTQPPSASGSPGQSVTISCTGTSSDVGGYNFVSWYQQDPGKAPKLLIYEVTKRPSGVPDRFSGSKSGNTASLTVSGLQAEDEADYYCSSYAGSNNVMFGGGTKLTVLG
notes: Bivalent monoclonal IgG1 lambda

What was measured:
[1] = target: T1, His-tagged recombinant Cynomolgus FAPα (Acro Biosystems, Cat #FAP-C52H3-100ug) (cynomolgus monkey, UniProt A0A2K5VGF4 26-760); experiment: BLI (Octet), antigen immobilized on AR2G sensors, average of three experiments
T1 construct: Bought reagent; also called recombinant cynomolgus monkey FAPα; not shown: His tag of the vendor's construct (Acro Biosystems FAP-C52H3)
T1 sequence: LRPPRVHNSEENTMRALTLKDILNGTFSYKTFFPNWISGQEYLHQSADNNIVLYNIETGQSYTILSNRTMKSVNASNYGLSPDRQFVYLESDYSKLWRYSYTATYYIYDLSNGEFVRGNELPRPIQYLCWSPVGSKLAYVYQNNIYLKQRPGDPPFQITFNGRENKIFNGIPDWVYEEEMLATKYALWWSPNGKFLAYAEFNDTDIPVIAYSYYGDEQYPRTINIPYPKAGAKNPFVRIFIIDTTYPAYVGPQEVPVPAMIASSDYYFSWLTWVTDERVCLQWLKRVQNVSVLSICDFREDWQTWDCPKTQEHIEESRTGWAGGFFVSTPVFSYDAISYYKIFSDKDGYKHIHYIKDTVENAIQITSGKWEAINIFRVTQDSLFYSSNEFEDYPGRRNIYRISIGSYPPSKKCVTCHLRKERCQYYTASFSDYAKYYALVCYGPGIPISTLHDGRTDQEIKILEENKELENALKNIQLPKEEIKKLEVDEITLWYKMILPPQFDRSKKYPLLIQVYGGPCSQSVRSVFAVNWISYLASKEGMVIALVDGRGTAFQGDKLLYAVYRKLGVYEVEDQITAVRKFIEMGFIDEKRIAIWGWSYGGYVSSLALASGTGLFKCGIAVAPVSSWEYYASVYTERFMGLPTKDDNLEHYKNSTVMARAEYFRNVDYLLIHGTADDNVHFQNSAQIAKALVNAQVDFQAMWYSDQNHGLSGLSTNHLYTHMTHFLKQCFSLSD
Procedure: (§1) Experiments were carried out while shaking at 1,000 RPM at 30° C. Amine Reactive 2nd Generation (AR2G) biosensors (Sartorius, Cat #18-5092) were activated by reaction with 20 mM EDC (N-(3-Dimethylaminopropyl)-N′-ethylcarbodiimide hydrochloride) (Sigma-Aldrich, Cat #03449) and 10 mM s-NHS (N-hydroxysulfosuccinimide sodium salt) (Sigma-Aldrich, Cat #56485) for 300 s. The activated AR2G sensors were loaded with 2.5 μg/mL His-tagged recombinant Human FAPα (Acro Biosystems, Cat #FAP-H5244-100ug) in 10 mM Sodium Acetate pH 5.0 (Sartorius, Cat #18-1069) or 2.5 μg/mL His-tagged recombinant Cynomolgus FAPα (Acro Biosystems, Cat #FAP-C52H3-100ug) in 10 mM Sodium Acetate pH 5.0 for 600 s and quenched with 1 M ethanolamine pH 8.5 (Sartorius Cat #18-1071) for 300 s. After a baseline measurement in Sample Diluent (1000 s; Sartorius, Cat #18-1104), the association (100 s) and dissociation (4,000 s) of functionally monovalent antibody was determined using a concentration range of 0.78-800 nM with two-fold dilution steps in Sample Diluent. The molecular mass of the antibodies used for the calculations was calculated from the sequences.
(§2) The Y-axis was aligned to the last 10 s of the baseline; Interstep Correction alignment to dissociation and Savitzky-Golay filtering were applied. Data traces with a response <0.05 nm were excluded from analysis. […] The data were fitted with the 1:1 Global Full fit model using a window of interest for the association of 100 s and dissociation time set 4,000 s.

[2] = target: T2, His-tagged recombinant Human FAPα (Acro Biosystems, Cat #FAP-H5244-100ug) (human, UniProt Q12884 26-760); experiment: as above
T2 construct: Bought reagent; not shown: His tag
T2 sequence (looked up): T1 sequence with P4S, F236V, D392E
Procedure: as §1, §2

[3] = target: T3, human DR4 (Death Receptor 4), cell surface expressed on human tumor cell lines (human, UniProt O00220 24-468); experiment: flow cytometry, MDA-MB-231 cells, n = 3
T3 construct: also called TNFRSF10A; TRAIL-R1
T3 sequence: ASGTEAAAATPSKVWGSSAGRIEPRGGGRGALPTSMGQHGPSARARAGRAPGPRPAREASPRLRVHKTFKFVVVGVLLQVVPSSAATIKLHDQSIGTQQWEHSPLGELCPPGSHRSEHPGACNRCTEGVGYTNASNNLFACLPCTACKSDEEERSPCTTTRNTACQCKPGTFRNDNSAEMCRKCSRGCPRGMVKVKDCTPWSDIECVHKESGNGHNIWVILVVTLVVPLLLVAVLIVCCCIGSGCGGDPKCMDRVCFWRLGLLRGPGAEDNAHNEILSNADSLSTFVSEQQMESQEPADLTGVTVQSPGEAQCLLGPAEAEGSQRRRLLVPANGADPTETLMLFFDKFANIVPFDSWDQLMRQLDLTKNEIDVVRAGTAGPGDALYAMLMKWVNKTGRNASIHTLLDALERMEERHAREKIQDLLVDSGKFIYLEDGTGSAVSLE

Binder	Kd [1] [nM]	koff [1] [s⁻¹]	kon [1] [M⁻¹ s⁻¹]	Kd [2] [nM]	koff [2] [s⁻¹]	kon [2] [M⁻¹ s⁻¹]	EC50 [3] [µg/mL]
B1	0.037	2.8e-05	770000	0.026	3e-05	1.1e+06	–
B2	0.034	2.5e-05	750000	0.017	2.1e-05	1.2e+06	–
B3	–	–	–	–	–	–	0.37
